No end group written: not given here.
Legend:
[1] = biological target: T1, human SEMG2 full-length protein (human, UniProt Q02383 24-582, limits assumed); experiment: biolayer interferometry (ForteBio Blitz or Gator)
T1 construct: also called SEMG2 protein; semenogelin 2
T1 sequence: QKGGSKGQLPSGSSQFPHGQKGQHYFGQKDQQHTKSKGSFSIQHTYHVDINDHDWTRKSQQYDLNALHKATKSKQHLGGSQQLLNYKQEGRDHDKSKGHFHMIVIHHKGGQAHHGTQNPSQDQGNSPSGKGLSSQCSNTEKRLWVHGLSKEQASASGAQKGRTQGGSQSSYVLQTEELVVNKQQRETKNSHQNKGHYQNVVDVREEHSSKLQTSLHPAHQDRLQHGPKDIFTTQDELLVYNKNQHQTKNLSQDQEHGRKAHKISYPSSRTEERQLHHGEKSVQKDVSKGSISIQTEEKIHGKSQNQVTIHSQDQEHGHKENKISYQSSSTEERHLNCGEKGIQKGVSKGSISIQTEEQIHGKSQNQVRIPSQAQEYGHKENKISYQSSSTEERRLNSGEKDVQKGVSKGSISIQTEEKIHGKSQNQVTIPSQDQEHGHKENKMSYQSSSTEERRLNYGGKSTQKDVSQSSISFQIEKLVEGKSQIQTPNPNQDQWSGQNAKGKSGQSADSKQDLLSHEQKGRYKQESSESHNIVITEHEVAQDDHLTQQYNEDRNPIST
Experimental: The equilibrium dissociation constant (KD) of the antibody of the present invention binding to human SEMG2 was determined by biolayer interferometry (ForteBio Bltz or Gator instrument). […] 100 μl of SD buffer, antibody and SEMG2 were added to a 96-well black polystyrene half area microplate, respectively. Select the sensor location based on the sample location layout. KD values were analyzed using molecular interaction analysis software. In the experiments of the assays, the affinity constants of murine monoclonal antibodies and human antibodies H88-67, H88-93 and H88-96 are shown in Table 8, and the affinity and dissociation curves of SEMG2 and corresponding proteins are shown in FIG. 25.

[2] = biological target: T1, human SEMG2 full-length protein; experiment: ELISA, immobilized antigen SEMG2 (1-582)
Text: (§1) To clearly distinguish the binding epitopes of blocking antibodies (i.e., antibodies that can inhibit the binding between SEMG2 and CD27) and non-blocking antibodies, a corresponding ELISA analysis method was established. […] Anti-mouse or anti-rabbit secondary antibodies were then used to detect the corresponding bound antibodies.

AIEKLVEGKSQIQ = biological target: T2, AIEKLVEGKSQIQ (not fully specified); experiment: ELISA, immobilized peptide AIEKLVEGKSQIQ
T2 construct: member of the group m41; the text speaks of glycine substitution, the sheet prints alanine
T2 peptide: AIEKLVEGKSQIQ
Text: (§2) FIG. 20 depicts the value detected by ELISA, i.e., OD₄₅₀ absorbance. […] This experiment is used to determine the precise amino acid epitopes that different monoclonal antibodies bind to, and the relative importance of each amino acid to the binding antibody.

QAEKLVEGKSQIQ = biological target: T3, QAEKLVEGKSQIQ (not fully specified); experiment: ELISA, immobilized peptide QAEKLVEGKSQIQ
T3 construct: member of the group m41; the text speaks of glycine substitution, the sheet prints alanine
T3 peptide: QAEKLVEGKSQIQ
Text: as §2

QIAKLVEGKSQIQ = biological target: T4, QIAKLVEGKSQIQ (not fully specified); experiment: ELISA, immobilized peptide QIAKLVEGKSQIQ
T4 construct: member of the group m41; the text speaks of glycine substitution, the sheet prints alanine
T4 peptide: QIAKLVEGKSQIQ

QIEALVEGKSQIQ = biological target: T5, QIEALVEGKSQIQ (not fully specified); experiment: ELISA, immobilized peptide QIEALVEGKSQIQ
T5 construct: member of the group m41; the text speaks of glycine substitution, the sheet prints alanine
T5 peptide: QIEALVEGKSQIQ
Text: as §2

QIEKAVEGKSQIQ = biological target: T6, QIEKAVEGKSQIQ (not fully specified); experiment: ELISA, immobilized peptide QIEKAVEGKSQIQ
T6 construct: alanine at this position
T6 peptide: QIEKAVEGKSQIQ
Text: as §2

QIEKLAEGKSQIQ = biological target: T7, QIEKLAEGKSQIQ (not fully specified); experiment: ELISA, immobilized peptide QIEKLAEGKSQIQ
T7 construct: member of the group m41; the text speaks of glycine substitution, the sheet prints alanine
T7 peptide: QIEKLAEGKSQIQ
Text: as §2

QIEKLVAGKSQIQ = biological target: T8, QIEKLVAGKSQIQ (not fully specified); experiment: ELISA, immobilized peptide QIEKLVAGKSQIQ
T8 construct: member of the group m41; the text speaks of glycine substitution, the sheet prints alanine
T8 peptide: QIEKLVAGKSQIQ
Text: as §2
To further precisely define the exact epitopes (specific to the level of single amino acid) to which blocking antibodies MM02, MM05, MM07, MM08, MM13, MM14 bind, corresponding ELISA analysis method was established. […] Anti-mouse or anti-rabbit secondary antibodies were then used to detect the corresponding bound antibodies.

QIEKLVEAKSQIQ = biological target: T9, QIEKLVEAKSQIQ; experiment: ELISA, immobilized peptide QIEKLVEAKSQIQ
T9 construct: member of the group m41; position 504 is glycine in SEMG2 and the sheet prints alanine there
T9 peptide: QIEKLVEAKSQIQ
Text: as §2

QIEKLVEGASQIQ = biological target: T10, QIEKLVEGASQIQ (not fully specified); experiment: ELISA, immobilized peptide QIEKLVEGASQIQ
T10 construct: member of the group m41; the text speaks of glycine substitution, the sheet prints alanine
T10 peptide: QIEKLVEGASQIQ
Text: as §2

QIEKLVEGKAQIQ = biological target: T11, QIEKLVEGKAQIQ (not fully specified); experiment: ELISA, immobilized peptide QIEKLVEGKAQIQ
T11 construct: alanine at this position
T11 peptide: QIEKLVEGKAQIQ
Text: as §2

QIEKLVEGKSAIQ = biological target: T12, QIEKLVEGKSAIQ (not fully specified); experiment: ELISA, immobilized peptide QIEKLVEGKSAIQ
T12 construct: alanine at this position
T12 peptide: QIEKLVEGKSAIQ
Text: as §2

QIEKLVEGKSQAQ = biological target: T13, QIEKLVEGKSQAQ (not fully specified); experiment: ELISA, immobilized peptide QIEKLVEGKSQAQ
T13 construct: member of the group m41; the text speaks of glycine substitution, the sheet prints alanine
T13 peptide: QIEKLVEGKSQAQ
Text: as §2

QIEKLVEGKSQIA = biological target: T14, QIEKLVEGKSQIA (not fully specified); experiment: ELISA, immobilized peptide QIEKLVEGKSQIA
T14 construct: alanine at this position
T14 peptide: QIEKLVEGKSQIA
Text: as §2

[3] = biological target: T15, SEMG2(497-509) polypeptide QIEKLVEGKSQIQ (human); experiment: ELISA, immobilized peptide QIEKLVEGKSQIQ
T15 peptide: QIEKLVEGKSQIQ
Text: as §2

SEMG2(354-403) fragment = biological target: T16, SEMG2(354-403) fragment (human); experiment: ELISA, immobilized antigen SEMG2 (354-403)
T16 peptide: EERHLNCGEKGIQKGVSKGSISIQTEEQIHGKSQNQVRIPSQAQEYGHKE
Text: as §1

SEMG2(442-453) fragment = biological target: T17, SEMG2(442-453) fragment (human); experiment: ELISA, immobilized antigen SEMG2 (442-453)
T17 peptide: IHGKSQNQVTIP
Text: as §1

[4] = biological target: T15, SEMG2(497-509) polypeptide QIEKLVEGKSQIQ; experiment: ELISA, immobilized antigen SEMG2 (497-509)
Text: as §1

SEMG2(563-574) fragment = biological target: T18, SEMG2(563-574) fragment (human); experiment: ELISA, immobilized antigen SEMG2 (563-574)
T18 peptide: VAQDDHLTQQYN
Text: as §1

[5] = biological target: T1, human SEMG2 full-length protein; experiment: ELISA, plate coated with SEMG2 protein, anti-mouse secondary antibody; the EC50 table prints no unit, the axis is log (antibody concentration, nM)
[6] = biological target: T1, human SEMG2 full-length protein; experiment: ELISA (FIG. 21B-D)
[7] = biological target: T19, BSA-conjugated human SEMG2 (497-509) polypeptide (human, also: coupled to BSA, site not given here); experiment: ELISA (FIG. 21B-D)
T19 peptide: QIEKLVEGKSQIQ

[8] = biological target: T1, human SEMG2 full-length protein; experiment: ELISA on SEMG2; the EC50 table prints no unit, the axis is log (antibody concentration, nM)
[9] = biological target: T19, BSA-conjugated human SEMG2 (497-509) …; experiment: ELISA on BSA-S2 (497-509); curve without upper plateau; the EC50 table prints no unit, the axis is log (antibody concentration, nM)
[10] = biological target: T20, human CD27 (HA-tagged, expressed in HEK293 cells) (human, UniProt P26842 20-260, limits assumed); experiment: co-immunoprecipitation, HEK293 co-transfection
T20 construct: Plasmid printed as 'pcDNA3-HA-CD2'; not shown: HA tag
T20 sequence (looked up): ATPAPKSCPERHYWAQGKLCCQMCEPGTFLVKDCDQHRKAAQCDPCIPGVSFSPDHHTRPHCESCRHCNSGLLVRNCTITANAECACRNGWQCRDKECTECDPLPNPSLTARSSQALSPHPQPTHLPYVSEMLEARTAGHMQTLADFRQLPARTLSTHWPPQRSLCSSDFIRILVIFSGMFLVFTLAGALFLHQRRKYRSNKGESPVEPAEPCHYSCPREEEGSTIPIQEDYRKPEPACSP
Experimental: In co-immunoprecipitation experiment, cells were lysed in IP buffer (Thermo Scientific) and Roche complete protease inhibitor for 10 minutes, followed by the addition of benzonase (sigma) for 25 minutes at room temperature. The lysate was then centrifuged at 15,000 rpm at 4° C. to remove the precipitate. The supernatant was then incubated with primary antibody slowly rotated overnight at 4° C., followed by the addition of protein A or protein G dynabeads and incubated at 4° C. for 2 hours, washed for 4 times in PBST (PBS with 0.01% Tween 20), eluted with 50 mM DTT in SDS sample buffer for 10 minutes at 100° C., separated with SDS, and immunoblotted as previously described.
To further confirm which part of SEMG-2 binds to CD27, fragments of SEMG2 protein were designed. The amino acid sequence of full-length SEMG2 protein (SEQ ID NO:1) was divided into 6 segments of sequences, fused with GFP and named as SEMG2-P1, SEMG2-P2, SEMG2-P3, SEMG2-P4, SEMG2-P5 and SEMG2-P6 (See Table 1 for specific sequences, with corresponding abbreviation as P1-P6 respectively). Plasmids expressing these amino acid sequences were co-transfected with CD27 into HEK293 cells, and co-immunoprecipitation experiments were performed to identify the main fragment of SEMG2 that binds to CD27.

B1: MM14 (antibody, IgG2b, V domains shown)
VH: QVQLKESGPGLVAPSQSLSITCTVSGFSLTSYAVSWVRQPPGKGLEWLGIIWGDGSTNYHSALISRLSISKDNSKSQVFLKLNSLQTDDTATYYCAKQERFSDGYYDGFAYWGQGTLVTVSA
VL: QIVLTQSPAIMSASPGEKVTITCSASSSVSYMHWFQQKPGTSPKLWIYSTSNLASGVPARFSGSGSGTSYSLTISRMEAEDAATYYCQQRSSYPFTFGSGTKLEIKR
Kd [1]: 1.44 nM
A450 absorbance [2]: 1.12
OD450 absorbance (AIEKLVEGKSQIQ): 0.813
OD450 absorbance (QAEKLVEGKSQIQ): 0.54
OD450 absorbance (QIAKLVEGKSQIQ): 0.776
OD450 absorbance (QIEALVEGKSQIQ): 0.777
OD450 absorbance (QIEKAVEGKSQIQ): 0.161
OD450 absorbance (QIEKLAEGKSQIQ): 0.804
OD450 absorbance (QIEKLVAGKSQIQ): 0.766
OD450 absorbance (QIEKLVEAKSQIQ): 0.47
OD450 absorbance (QIEKLVEGASQIQ): 0.621
OD450 absorbance (QIEKLVEGKAQIQ): 0.022
OD450 absorbance (QIEKLVEGKSAIQ): 1.18
OD450 absorbance (QIEKLVEGKSQAQ): 0.588
OD450 absorbance (QIEKLVEGKSQIA): 1.23
OD450 absorbance [3]: 1.17
A450 absorbance (SEMG2(354-403) fragment): 0.003
binding result (SEMG2(354-403) fragment): no binding
A450 absorbance (SEMG2(442-453) fragment): 0.007
binding result (SEMG2(442-453) fragment): no binding
A450 absorbance [4]: 1.11
binding result (SEMG2(563-574) fragment): no binding
EC50 [5]: 0.507 nM

B2: 67-3-67-6 (antibody, V domains shown)
VH: QVQLLESGGGVVQPGRSLRLSCAASGFTFSSYAMHWVRQASGKGLEWVAVISYDGSNKYYADSVKGRFTISRDNSKNTLYLQMNSLRAEDTAVYYCARMDNHGSPDYWGQGTLVTVSS
VL: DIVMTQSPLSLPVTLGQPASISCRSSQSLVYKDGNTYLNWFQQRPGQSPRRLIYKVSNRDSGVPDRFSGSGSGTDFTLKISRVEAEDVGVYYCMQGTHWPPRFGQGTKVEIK
fold higher affinity than the parent antibody (H88-67) [6]: > 10 fold
fold higher affinity than the parent antibody (H88-67) [7]: > 10 fold
EC50 [8]: 0.313 nM
EC50 [9]: 12.6 nM

B3: 67-6-67-6 (antibody, V domains shown)
VH: QVQLLESGGGVVQPGRSLRLSCAASGFTFSSYAMHWVRQASGKGLEWVAVISYDGSNKYYADSVKGRFTISRDNSKNTLYLQMNSLRAEDTAVYYCARMDGHGSPDYWGQGTLVTVSS
VL: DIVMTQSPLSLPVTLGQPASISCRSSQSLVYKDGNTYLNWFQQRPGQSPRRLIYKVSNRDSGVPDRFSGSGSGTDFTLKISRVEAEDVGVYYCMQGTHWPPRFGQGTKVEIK
fold higher affinity than the parent antibody (H88-67) [6]: > 10 fold
fold higher affinity than the parent antibody (H88-67) [7]: > 10 fold
EC50 [8]: 0.619 nM
EC50 [9]: 38.5 nM

B4: SEMG2-P1 fused with GFP (other)
chain: GSFSIQHTYHVDINDHDWTRKSQQYDLNALHKATKSKQHLGGSQQLLNYKQEGRDHDKSKGHFHMIVIHHKGGQAHHGT
notes: not shown: GFP fusion partner
binding result [10]: no binding
